This test concerns the target human ROR1 (hROR1) on the cell surface (human) (UniProt Q01973). In words: cell-based or functional assay.

Chain of human ROR1 (hROR1) on the cell surface (human) (Q01973 30-937): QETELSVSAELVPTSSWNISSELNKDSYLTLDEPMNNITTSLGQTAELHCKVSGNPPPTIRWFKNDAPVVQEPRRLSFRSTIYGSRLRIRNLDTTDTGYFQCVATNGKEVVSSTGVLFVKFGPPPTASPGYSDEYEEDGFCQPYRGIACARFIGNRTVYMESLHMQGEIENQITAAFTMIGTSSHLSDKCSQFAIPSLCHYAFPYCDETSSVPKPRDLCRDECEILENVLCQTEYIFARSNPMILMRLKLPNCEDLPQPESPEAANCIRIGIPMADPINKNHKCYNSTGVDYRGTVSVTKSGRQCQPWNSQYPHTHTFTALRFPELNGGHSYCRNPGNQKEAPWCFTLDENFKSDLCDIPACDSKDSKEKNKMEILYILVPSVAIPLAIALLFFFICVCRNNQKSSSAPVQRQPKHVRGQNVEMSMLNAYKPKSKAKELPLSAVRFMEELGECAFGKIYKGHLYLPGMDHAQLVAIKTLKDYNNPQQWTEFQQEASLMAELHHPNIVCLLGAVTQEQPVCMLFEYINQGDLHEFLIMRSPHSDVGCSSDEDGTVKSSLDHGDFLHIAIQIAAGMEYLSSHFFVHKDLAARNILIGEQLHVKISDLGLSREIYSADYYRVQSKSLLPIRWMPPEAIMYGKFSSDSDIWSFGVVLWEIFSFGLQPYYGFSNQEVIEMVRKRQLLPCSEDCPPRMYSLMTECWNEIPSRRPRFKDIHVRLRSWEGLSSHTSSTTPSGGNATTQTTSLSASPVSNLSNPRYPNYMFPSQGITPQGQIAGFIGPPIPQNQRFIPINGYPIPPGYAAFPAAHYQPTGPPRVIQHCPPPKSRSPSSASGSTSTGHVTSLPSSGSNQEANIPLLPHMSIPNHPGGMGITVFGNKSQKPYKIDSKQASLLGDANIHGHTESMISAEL

For 2A2-G5-PNU (antibody), the IC50, in vitro cell killing of 697 cells is 0.125 µg/mL; the IC50, in vitro cell killing of A549 cells is 76.8 µg/mL; the IC50, in vitro cell killing of HS 578T cells was found to be 1.78 µg/mL; the IC50, in vitro cell killing of HT-29 cells was found to be 19.8 µg/mL. In addition, the IC50, in vitro cell killing of MDA-MB-468 cells amounted to 0.727 µg/mL.
